Here are results for three molecules from patent publication US20230406902A1 (BIONTECH, published 2023).

Bridges are numbered along the chain shown (N, C = ends). Where no end group is shown, it is not given here.

B1: Cyclopeptide-GGS-K(X) of ACHLGYPGRCG (Seq. 3) (peptide)
peptide: ACHLGYPGRCGGGSK
modifications: disulfide 2-10 (inferred); also: C-terminal Lys carries an unspecified functional group X for microarray attachment
notes: Microarray construct; also called parental peptide (cyclic, immobilized through C-terminus)
B2: Cyclopeptide-GGS-K(X) of ACHLNYPGYCG (Seq. 1) (peptide)
peptide: ACHLNYPGYCGGGSK
modifications: disulfide 2-10 (inferred); also: C-terminal Lys carries an unspecified functional group X for microarray attachment
notes: as for B1
B3: Cyclopeptide-GGS-K(X) of ACHYSYPGVCG (Seq. 2) (peptide)
peptide: ACHYSYPGVCGGGSK
modifications: disulfide 2-10 (inferred); also: C-terminal Lys carries an unspecified functional group X for microarray attachment
notes: as for B1

The assay deals with T1, IMAB362.
T1 construct: It is the target of the phage display selection; also called IMAB362 antibody
T1 sequence (VH, as listed by the source limits assumed, chain 1 of 2): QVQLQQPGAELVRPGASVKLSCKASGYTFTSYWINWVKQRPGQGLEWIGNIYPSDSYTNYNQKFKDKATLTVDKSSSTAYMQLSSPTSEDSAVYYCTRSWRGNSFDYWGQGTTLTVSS
T1 sequence (VL, as listed by the source limits assumed, chain 2 of 2): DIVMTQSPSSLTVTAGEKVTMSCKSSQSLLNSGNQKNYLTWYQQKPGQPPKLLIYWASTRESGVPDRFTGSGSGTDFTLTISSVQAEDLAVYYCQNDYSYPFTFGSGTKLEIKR
The assay can be described thus: peptide microarray, 1 µg/ml IMAB362, fluorescence signal; this construct is the reference.
Description: Washing steps were performed prior every incubation step with 0.1% Tween-20 in 1×TBS. After the final incubation step the microarrays were washed (0.05% Tween-20 in 0.1×SSC) and dried in a stream of nitrogen. Each microarray was scanned using a GenePix Autoloader 4200AL (Molecular Devices, Pixel size: 10 μm). Signal intensities were evaluated using GenePix Pro 7.0 analysis software (Molecular Devices). For each peptide, the mean of the three triplicates was calculated.
B1: the “% Affinity compared to hit peptide” value came to 100%.
Turning to B2, the “% Affinity compared to hit peptide” value was 100%.
Turning to B3, the “% Affinity compared to hit peptide” value came to 100%.
